Source: US20210284724A1 (I MAB BIOPHARMA US, published 2021)
Changes are numbered by the printed parent chain.

B1: 71F4-4B12 (antibody, V domains shown)
VH: EVQLVESGGGLVQPGGSLRLSCAASGIDFSRYWMSWVRQAPGKGLEWVAEINPERNYINYAPSLKDRFTISRDNAKNSLYLQMNSLRAEDTAVYYCARQDDYDKYAMDYWGQGTTVTVSS
VL: DIQMTQSPSSLSASVGDRVTITCKASQDVNTGVTWYQQKPGKAPKLLIYSASYRYTGVPSRFSGSGSGTDFTFTISSLQPEDIATYYCQQYYSTPLTFGGGTKLEIK
notes: not certain; also called 71F4A3-B12
B2: 71F4A3-BD12 (antibody, V domains shown)
VH: B1 VH with R55T, N56T, Y57I, D103R, K104H
VL: B1 VL with T34A, Y36F
notes: also called 71F4-BD12
B3: 71F4A3-BC1 (antibody, V domains shown)
VH: B1 VH with R55A, N56S, Y57S, D103S, K104H
VL: B1 VL with T34S, Y36S
notes: also called 71F4-BC1
B4: 71F4A3-3F12 (antibody, V domains shown)
VH: B1 VH with R55S, Y57F, D103S, K104V
VL: B1 VL with Y36F
notes: also called 71F4-3F12
B5: 71F4A3-BE3 (antibody, V domains shown)
VH: B1 VH with R55S, N56S, Y57T, D103L, K104T
VL: B1 VL with G32A, T34D, Y36F
notes: also called 71F4-BE3
B6: 71F4A3-4H1 (antibody, V domains shown)
VH: B1 VH with R55S, N56T, Y57L, D103R, K104N
VL: B1 VL with T34S, Y36F
notes: also called 71F4-4H1
B7: 71F4A3-5A4 (antibody, V domains shown)
VH: B1 VH with R55S, N56T, Y57G, D103W, K104T
VL: B1 VL with G32A, T34S, Y36T
notes: also called 71F4-5A4
B8: 71F4A3-BC4 (antibody, V domains shown)
VH: B1 VH with R55A, N56G, Y57K, I58W, D103T, K104T
VL: B1 VL with T34S
notes: also called 71F4-BC4
B9: 71F4A3-VH2VL1 (Fab, V domains shown)
VH: B1 VH with E6Q, E54D, R55S, N56S, Y57T, D103E, K104Y
VL: B1 VL with T34A
notes: Humanized Fab, human gamma 1 and kappa constant domains
B10: 71F4A3-VH3VL1 (Fab, V domains shown)
VH: B1 VH with E6Q, A49G, E54D, R55S, N56S, Y57T, L86V, D103E, K104Y
VL: B1 VL with T34A
notes: as for B9
B11: 71F4A3 chimeric Fab (Fab, V domains shown)
VH: EVKLLQSGGGLVQPGGSLKLSCAASGIDFSRYWMSWVRRAPGKGLEWIGEINPDSSTINYAPSLKDKFIISRDNAKNTLYLQMSKVRSEDTALYYCARQDDYEYYAMDYWGQGTSVTVSS
VL: DIVMTQSHKSMSTSVGDRVSITCKASQDVNTGVAWYRQKPGQSPKLLIYSASYRYTGVPDRFTGSGSGTDFTFTISSVQAEDLAVYYCQQYYSTPLTFGAGTKLELK
notes: Fab
B12: 1H3A11 chimeric human IgG1 antibody (antibody, V domains shown)
VH: EVQLVESGGGLVKPGGSLKLSCAASGFTFSSYAMSWVRQTPEKRLEWVATISDGGSDTYYPDNVKGRFTISRDNAKNNLYLQMSHLKSEDTAMYYCARDYYGSSYEDYAMDYWGQGTSVTVSS
VL: DIQMTQSPSSLSASLGGKVTITCKASQDINKYITWYQHKPGKGPRLLIHYTSTLQPGIPSRFSGSGSGRDYSFSISNLEPEDIATYYCLQYDNLYTFGGGTKLEIK
notes: Chimeric human IgG1
B13: 414D10F5 chimeric human IgG1 antibody (antibody, V domains shown)
VH: EVQLAESGGGLVQPGRSLKLSCSASGFTFSDYYMAWFRQAPPKGLEWVASISYDGGDSFYRDSVKGRFTISRDNAKSSLYLQMDSLRSEDTATYYCTTEEDYSGSFPDYWGQGVMVTVSS
VL: DIQMTQSPSFLSASVGDRVTINCKASQNINKYLNWYQQKLGEAPKRLIYDTNNLQAGIPSRFSGSGSGTDYTLTINSLQPEDFATYFCLQHNSLYTFGGGTKLELK
notes: Chimeric human IgG1
B14: 21H12D9 chimeric human IgG1 antibody (antibody, V domains shown)
VH: EVQLQQSGPVLVRPGASVKMSCKASGYTFTDYYMNWVKQSHGKSLEWIGVINPNNGGTTYKEKFKGKATLTVDKSSGTAYMELNSLTSEDSAVYYCARDDYDAGYWGQGTTLTVSS
VL: DIVMTQFQKFMSTTVGDRVSITCKASQNVDTAVAWYQHKPGQSPKLLIYSASHRYTGVPDRFTGSGSGTDFTLTISNVQSEDLADYFCQQYTDFPLTFGAGTKLELK
notes: Chimeric human IgG1
B15: 415A3D1 chimeric human IgG1 antibody (antibody, V domains shown)
VH: EVKLLESGGGLVQAGGSMRLSCGAFGFTVTDFYINWIRQPAGKAPEWLGFMRNKANGYTTEYNPSVKGRFTISRNNTQNMPYLQMNTLRTEDTAIYYCARSRYNADDYYVGVMDVWGQGASVTVSS
VL: DIQMTQFPASLSASLGETVSIECLASEDIYNNLAWYQQKPGKSPQLLIYYTNSLQDGVPSRFSGTGSGTQYSLKINSLESEDAATYFCLQDSEYPWTFGGGTKLKLK
notes: Chimeric human IgG1; label 415A3D1 read as clone 415A3D1F4
B16: 411A11E9 chimeric human IgG1 antibody (antibody, V domains shown)
VH: EVQLVESGGGLVQPGGSLKLSCVVSGFTFSDYYMAWVRQTPTKGLEWVASINYDGGDTYYRDSVKGRFTVSRNNAKSSLFLQMDSLRSEDTATYYCKTEEDYDGSYVMDAWGQGASVIVSS
VL: DIQMTQSPSFLSASVGDRVTISCKASQNINKELTWYQQKLGKAPKRLIYNTNILQTGIPSRFSGSGSNTDYTLTISSLQPEDFATYFCLQQSSLYTFGAGTKLELK
notes: Chimeric human IgG1

Target: T1, human CXCL13 (human, UniProt O43927 23-109)
T1 construct: also called huCXCL13; rhCXCL13
T1 sequence (looked up): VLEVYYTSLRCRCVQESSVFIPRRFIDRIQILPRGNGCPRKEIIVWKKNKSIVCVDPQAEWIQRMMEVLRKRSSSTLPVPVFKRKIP
Assay: SPR Biacore T200
Description: In the first approach, mutations were chosen to target the hotspots in LCDR1, HCDR2 and HCDR3. Usually, CDR3 contributes most to antigen binding and heavy chain is more important than light chain for antigen binding. Moreover, LCDR1 is important for antigen binding. For the first trial, random mutations were targeted to hotspots in LCDR1, HCDR2 and HCDR3. Eliminate hotspots that code for conserved and buried amino acids in CDRs. […] After finishing construction of phage library, antigen CXCL13 screening was followed. Antibodies of these sequences were generated, and affinity testing was performed by Biacore T200.

| Binder | kon [M⁻¹ s⁻¹] |
| --- | --- |
| B1 | 5.36e+06 |
| B2 | 1.9e+06 |
| B3 | 2.09e+06 |
| B4 | 6.3e+06 |
| B5 | 1.03e+06 |
| B6 | 1.64e+07 |
| B7 | 6.58e+06 |
| B8 | 362000 |

Target: T1, human CXCL13
Assay: ELISA binding, Fab

| Binder | EC50 [nM] |
| --- | --- |
| B9 | 0.819 |
| B10 | 0.575 |
| B11 | 1.49 |

Target: T1, human CXCL13
Assay: ELISA, coated antigen, chimeric IgG1
Procedure: (§1) Elisa based binding assay. […] Briefly, 100 μl of human CXCL13 or cynomolgus CXCL13 was coated at 0.5 μg/ml overnight and then blocked by 200 μl of 5% BSA in PBS. Serial diluted antibodies were incubated with the coated antigen for 30 min at RT. The resulting plates were washed with PBS/T and incubated with goat anti-human IgG Fc-HRP for 30 min RT. The plates were developed with TMB substrate after washing with 1×PBST for 5 times and reaction stopped with 1N HCl and analyzed by spectrophotometer at OD 450-630 nm.

| Binder | EC50 [µg/mL] |
| --- | --- |
| B12 | 0.0553 |
| B13 | 0.0628 |
| B14 | 0.0536 |
| B15 | 0.0729 |
| B16 | 0.0485 |

Target: T2, cynomolgus CXCL13 (cynomolgus, UniProt H6WS58 23-109)
T2 construct: also called cynoCXCL13; Cyno CXCL13
T2 sequence: T1 sequence (looked up) with S8H, L32S, I52V, M65I, V68M, R72K, L77P
Assay: ELISA, coated antigen, chimeric IgG1
Procedure: as §1

| Binder | EC50 [µg/mL] |
| --- | --- |
| B12 | 0.144 |
| B13 | 1.19 |
| B14 | 0.0488 |
| B15 | 0.0469 |
| B16 | 0.1 |

Target: T1, human CXCL13
Assay: SPR Biacore, off-rate ranking of Fabs

| Binder | Kd [nM] | koff [s⁻¹] | kon [M⁻¹ s⁻¹] |
| --- | --- | --- | --- |
| B9 | 0.554 | 0.00108 | 1.95e+06 |
| B10 | 0.462 | 0.000987 | 2.14e+06 |
| B11 | 0.556 | 0.00184 | 3.3e+06 |

Target: T1, human CXCL13
Assay: SPR Biacore 8K, Fab over immobilised CXCL13
Procedure: HuCXCL13 binding affinity by Surface Plasmon Resonance. 411A11E9, 415A3D1, 64C10G1, 21H12D9, 329F2E1, 71F4A3 were selected to produce Fab and tested binding affinity. The binding of the antibodies to huCXCL13 was examined by Biacore 8K. 10 mM HEPES, 150 mM NaCl, 3 mM EDTA, 0.05% Tween-20, pH 7.4 served as running buffer and 10 mM glycine-HCl, pH2.0 served as regeneration buffer. CXCL13 protein was immobilized on Sensor Chip CM5 using amine coupling method (immobilization level ˜30RU). The serial concentrations of Fab (0-16 nM) were injected over immobilized CXCL13 at the flow rate of 30 μl/min. The dissociation phases were 600s.

| Binder | Kd [nM] | koff [s⁻¹] | kon [M⁻¹ s⁻¹] |
| --- | --- | --- | --- |
| B11 | 0.154 | 0.000285 | 1.85e+06 |

Target: T1, human CXCL13
Assay: SPR Biacore 8K, Fab over immobilised CXCL13
Remark: another data set of the same source
How it was run: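 Surface plasmon resonance: CXCL13 amine-coupled to CM5 chip at ~250 RU, humanized Fabs injected at 0–20 nM, 30 μl/min, in HEPES-buffered saline with EDTA and Tween-20, pH 7.4. Dissociation 600 s; regeneration with glycine-HCl pH 2.0.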

| Binder | Kd [nM] | koff [s⁻¹] | kon [M⁻¹ s⁻¹] |
| --- | --- | --- | --- |
| B9 | 0.853 | 0.00145 | 1.7e+06 |
| B10 | 0.934 | 0.00153 | 1.64e+06 |
| B11 | 0.782 | 0.00141 | 1.8e+06 |

Target: T1, human CXCL13
Assay: cell-based blocking assay, CXCL13 to CXCR5 cells
How it was run: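 Serially diluted humanized Fabs were pre-incubated for 30 min at room temperature with an equal volume of 0.3 μg/ml human CXCL13. 100 μl was added for 30 min to CHO-K1-CXCR5 cells (5×10⁴/well, plated overnight at 37° C, fixed with 2% PFA, blocked with 1% BSA in PBST). After three PBST washes, bound CXCL13 was captured with 3 μg/ml of a human anti-CXCL13 antibody, detected with anti-human Fc-HRP and read at 450 nm. IC50 came from the titration.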

| Binder | IC50 [nM] |
| --- | --- |
| B9 | 10.5 |
| B10 | 11.3 |
| B11 | 5.07 |

Target: T1, human CXCL13
Assay: cell-based blocking ELISA, CXCL13 to CHO-K1-CXCR5
Procedure: This example tested the blocking of the anti-CXCL13 chimeric antibodies to CHO-K1-CXCR5 cells. Briefly, 5×10⁴ CHO-K1-CXCR5 cells were plated in 96-well plate with 100 μl of culture medium and incubated at 37° C. overnight. Cells were fixed with 100 μl of 2% PFA at RT for 1 hr after washing with PBS for 1 time. Samples were blocked with 1% BSA in PBST for 1 hr at RT. Antibodies were serial diluted from 50 μg/ml by 3-fold with 1% BSA/PBST and pre-incubated with equal volume of 0.3 μg/ml human CXCL13 for 30 min at RT. 100 μl of antibody-antigen complex was transferred into each cell wells for 30 min at RT. Samples were washed with 1×PBST for 3 times and 100 μl of 3 μg/ml of human Mab5261 antibody was added into each well to capture human CXCL13 and anti-human Fc-HRP was used to indirectly detect human CXCL13 when it bound to CHO-K1-CXCR5 cells.
Then read at 450 nm. […] Among all clones, 415A3D1, 64C10G1, 1H3A11, 414D10F5, 411A11E9, 21H12D9, 71F4A3, 329F2E1 show completely blocking activity and 408E3F3, 19H7E10, 339A6E7 appeared to be partial blockers.

| Binder | IC50 [µg/mL] |
| --- | --- |
| B12 | 1.19 |
| B13 | 1.26 |
| B14 | 1.89 |
| B15 | 0.985 |
| B16 | 1.71 |
